Positions of bridges follow the written chain, without caps; N, C: chain ends. No end group written: not given here.
Tests used:
Assay in all cases: cell-based or functional assay
[1] = target: cell surface-bound gelatinases (of HT1080 cells)
[2] = target: T1, MMP-2 (matrix metalloproteinase-2, gelatinase), purified enzyme (UniProt P08253 110-660, limits assumed)
T1 sequence (looked up): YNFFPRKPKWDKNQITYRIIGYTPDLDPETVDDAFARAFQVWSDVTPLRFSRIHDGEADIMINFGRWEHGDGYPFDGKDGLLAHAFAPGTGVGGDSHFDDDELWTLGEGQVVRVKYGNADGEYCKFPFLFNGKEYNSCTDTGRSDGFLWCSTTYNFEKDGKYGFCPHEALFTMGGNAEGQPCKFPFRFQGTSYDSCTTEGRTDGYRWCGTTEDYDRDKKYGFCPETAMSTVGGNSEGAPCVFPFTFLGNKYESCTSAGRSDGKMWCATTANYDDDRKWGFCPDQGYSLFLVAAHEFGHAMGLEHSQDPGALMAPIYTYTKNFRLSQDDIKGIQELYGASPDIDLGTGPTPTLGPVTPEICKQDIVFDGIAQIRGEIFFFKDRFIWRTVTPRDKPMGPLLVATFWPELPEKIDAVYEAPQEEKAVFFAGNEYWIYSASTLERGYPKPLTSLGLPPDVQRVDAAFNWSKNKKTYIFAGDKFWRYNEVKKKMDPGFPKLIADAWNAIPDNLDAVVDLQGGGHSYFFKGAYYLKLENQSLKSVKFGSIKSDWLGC

[3] = target: MMP-9 (matrix metalloproteinase-9, gelatinase), purified enzyme (UniProt P14780 107-707, limits assumed)
Chain of MMP-9 (matrix metalloproteinase-9, gelatinase), purified enzyme (P14780 107-707 limits assumed): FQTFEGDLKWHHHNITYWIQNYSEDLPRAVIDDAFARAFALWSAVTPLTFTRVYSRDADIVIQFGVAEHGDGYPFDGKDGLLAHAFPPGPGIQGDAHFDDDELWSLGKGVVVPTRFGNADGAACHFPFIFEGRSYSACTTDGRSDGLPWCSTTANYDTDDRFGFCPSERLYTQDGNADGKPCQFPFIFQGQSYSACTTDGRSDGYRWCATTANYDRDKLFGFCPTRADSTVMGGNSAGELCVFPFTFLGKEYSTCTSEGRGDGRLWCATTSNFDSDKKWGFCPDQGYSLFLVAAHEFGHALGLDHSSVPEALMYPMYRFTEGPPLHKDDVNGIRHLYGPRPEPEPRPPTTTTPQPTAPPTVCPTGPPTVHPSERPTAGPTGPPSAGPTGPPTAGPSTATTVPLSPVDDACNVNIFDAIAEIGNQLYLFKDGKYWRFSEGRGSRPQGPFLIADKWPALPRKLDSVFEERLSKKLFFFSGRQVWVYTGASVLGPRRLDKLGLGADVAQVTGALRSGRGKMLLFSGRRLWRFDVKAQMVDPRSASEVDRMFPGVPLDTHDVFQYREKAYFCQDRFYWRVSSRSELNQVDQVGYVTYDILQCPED

## CTTHWGFTLC (disulfide 1-10; also: adsorbed non-covalently to POPC/POPE liposomes) [CTT peptide … bound to POPC/POPE (80/20 mol/mol) liposomes]
[1]
  transfer of rhodamine B liposomes with CTT into HT1080 cells after preincubation with TIMP-2 (10 µg/ml): 50 % inhibition

## CLPGHWGFPSC (disulfide 1-11) [CLP peptide CLPGHWGFPSC]
[2]
  inhibition of MMP-2 activity, casein zymography (area digested), peptide at 85 uM: 50 % inhibition

## CTTHWGFTLC (disulfide 1-10) [CTT peptide CTTHWGFTLC (cyclic, free in solution)]
[2]
  inhibition of MMP-2 activity, casein zymography (area digested), peptide at 85 uM: ~70 % inhibition
[3]
  IC50 of inhibition of MMP-9 activity, gelatinase assay with fluorogenic peptide substrate: 8 µM

## STTHWGFTLC [STT peptide … (linear analog of CTT)]
[2]
  inhibition of MMP-2 activity, casein zymography (area digested), peptide at 85 uM: ~30 % inhibition

## CTTHWGFTLC (disulfide 1-10; also: adsorbed non-covalently to POPC/POPE liposomes) [CTT peptide CTTHWGFTLC bound to POPC/POPE (80/20 mol/mol) liposomes]
[3]
  IC50 of inhibition of MMP-9 activity, gelatinase assay with fluorogenic peptide substrate: 8 µM

From patent US20040213833A1 (published 2004)
